Source: patent US20130323259A1 (Novo Nordisk, published 2013)
Substitutions are numbered along the chain they refer to. Numbers in names are those of the source. Where “and” joins values, the source holds several entries; their conditions need not be identical. Identical values can stand only once. Values belong to the binder of their own block, whether it stands above or below them.

Legend:
[1] = molecular target: T1, human IL-21 (hIL-21 protein; recombinant human IL-21) (human, UniProt Q9HBE4 25-162, limits assumed); experiment: SPR, Biacore T200, mAb captured by anti-human Fc, hIL-21 as analyte; exp no 1
Protocol: (§1) Anti-human Fc monoclonal from Biacore human Fc capture kit was immobilized onto flow cells of a CM4 sensor chip according to the manufacturer's instructions. […] The CM4 surface was regenerated after each injection cycle of analyte via two injections of 3M MgCl₂ at 50 μl/min.
(§2) In order to receive kinetic data, such as ka (association rate), kd (dissociation rate) and KD (equilibrium dissociation constant), data analysis was performed using the Biacore T200 evaluation software 1.0.

[2] = molecular target: T1, human IL-21 (hIL-21 protein; …); experiment: SPR (Biacore), mAb captured by anti-Fc, hIL-21 as analyte; experiment no 2
[3] = molecular target: T1, human IL-21 (hIL-21 protein; …); experiment: SPR (Biacore), average of experiments
[4] = molecular target: hIL-21: human recombinant IL-21, corresponding to residues 30-162 and with an N-terminal Methionine as … (human, UniProt Q9HBE4 30-162); experiment: HX-MS, 4 µM hIL-21 with 2.4 µM mAb
[5] = molecular target: T1, human IL-21 (hIL-21 protein; …); experiment: SPR (Biacore), mAb captured by anti-Fc, hIL-21 as analyte; experiment no 1
[6] = molecular target: T1, human IL-21 (hIL-21 protein; …); experiment: cell-based or functional assay
[7] = molecular target: T1, human IL-21 (hIL-21 protein; …); experiment: SPR, Biacore T200, mAb captured by anti-human Fc, hIL-21 as analyte; exp no 1; Exp no 1, first of the two exp-1 rows for 0005
[8] = molecular target: T1, human IL-21 (hIL-21 protein; …); experiment: SPR, Biacore T200, mAb captured by anti-human Fc, hIL-21 as analyte; exp no 2
Protocol: as §1, §2

[9] = molecular target: T1, human IL-21 (hIL-21 protein; …); experiment: cell-based or functional assay; remark: listed apart in the source
[10] = molecular target: T1, human IL-21 (hIL-21 protein; …); experiment: SPR, Biacore T200, average of two experiments
Protocol: as §1, §2

[11] = molecular target: T1, human IL-21 (hIL-21 protein; …); experiment: SPR (Biacore), mAb captured by anti-Fc, hIL-21 as analyte; experiment no 6

hIL-21: human recombinant IL-21, corresponding to residues 30-162 and with an N-terminal Methionine as …, sequence (Q9HBE4 other isoform, or with tags, fused parts or gaps): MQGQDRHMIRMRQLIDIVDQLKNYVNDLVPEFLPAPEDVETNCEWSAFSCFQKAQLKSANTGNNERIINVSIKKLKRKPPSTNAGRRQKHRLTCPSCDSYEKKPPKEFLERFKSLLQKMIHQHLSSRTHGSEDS
T1 sequence (Q9HBE4 25-162 limits assumed): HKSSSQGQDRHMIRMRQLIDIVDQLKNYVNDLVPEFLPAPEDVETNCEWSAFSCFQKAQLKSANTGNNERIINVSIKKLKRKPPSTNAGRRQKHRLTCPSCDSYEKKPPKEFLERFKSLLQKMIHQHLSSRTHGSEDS

B1: monoclonal antibody NNC 0114-0005 (antibody, human IgG1, kappa, V domains shown)
VH: QVQLVESGGGVVQPGRSLRLSCAASGFTFSSYGMHWVRQAPGKGLEWVAFIWYDGSDKYYADSVKGRFTISRDNSKNTLYLQMNSLRAEDTAVYYCARDGDSSDWYGDYYFGMDVWGQGTTVTVSS
VL: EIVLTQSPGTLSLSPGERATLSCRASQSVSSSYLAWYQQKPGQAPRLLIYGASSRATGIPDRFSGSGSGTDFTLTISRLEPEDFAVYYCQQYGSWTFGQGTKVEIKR
notes: also called NNC114-0005
Kd [1]: 0.58 pM and 0.72 pM | koff [1]: 9.5e-06 s⁻¹ and 1.1e-05 s⁻¹ | kon [1]: 1.5e+07 M⁻¹ s⁻¹ | Kd [2]: 0.17 pM | koff [2]: 1.1e-05 s⁻¹ | kon [2]: 6.6e+07 M⁻¹ s⁻¹ | Kd [3]: ≤ 1 pM | koff [3]: 1e-05 s⁻¹ | amides protected from exchange in region E93-V98 at 100 sec [4]: ~2 amides | Kd [5]: 0.58 pM and 0.72 pM | koff [5]: 9.5e-06 s⁻¹ and 1.1e-05 s⁻¹ | kon [5]: 1.6e+07 M⁻¹ s⁻¹ and 1.5e+07 M⁻¹ s⁻¹ | IC50 (nM), B cell proliferation, Donor 1 (0114-0000-0006) [6]: 0.82 nM | IC50 (nM), B cell proliferation, Donor 2 (0114-0000-0006) [6]: 0.83 nM | IC50 (nM), B cell proliferation, Donor 3 (0114-0000-0006) [6]: 0.57 nM | IC50 (nM), B cell proliferation, Donor 4 (0114-0000-0006) [6]: 1.33 nM | kon [7]: 1.6e+07 M⁻¹ s⁻¹ | Kd [8]: 0.17 pM | koff [8]: 1.1e-05 s⁻¹ | kon [8]: 6.6e+07 M⁻¹ s⁻¹

B3: NNC-0114-0044, Light-chain residue 57 Thr to Ser mutated form (L:T57S) of NNC 0114-0005 (antibody, human IgG1, kappa, V domains shown)
VH: B1 VH
VL: EIVLTQSPGTLSLSPGERATLSCRASQSVSSSYLAWYQQKPGQAPRLLIYGASSRASGIPDRFSGSGSGTDFTLTISRLEPEDFAVYYCQQYGSWTFGQGTKVEIKR
Kd [1]: ≤ 0.46 pM | koff [1]: ≤ 1e-05 s⁻¹ | kon [1]: 2.2e+07 M⁻¹ s⁻¹ | Bioactivity as % of RM (NCC0114-0000-0006), NK-92 bioassay [9]: 77.8% | IC50 (nM), B cell proliferation, Donor 2 [6]: 0.8 nM | IC50 (nM), B cell proliferation, Donor 4 [6]: 1.17 nM | Kd [10]: ≤ 1 pM | koff [10]: 1e-05 s⁻¹ | Kd [8]: 0.24 pM | koff [8]: 1.3e-05 s⁻¹ | kon [8]: 5.4e+07 M⁻¹ s⁻¹

B7: 0114-0000-0041, light chain S54A variant of mAb 0006 (NNC 0114-0005) (antibody, human IgG1, kappa, V domains shown)
VH: B1 VH
VL: B3 VL with S54A, S57T
amides protected from exchange in region E93-V98 at 100 sec [4]: ~2 amides | Bioactivity as % of RM (NCC0114-0000-0006), NK-92 bioassay [9]: 83.9% | IC50 (nM), B cell proliferation, Donor 1 [6]: 1.15 nM | IC50 (nM), B cell proliferation, Donor 3 [6]: 1.12 nM

B8: 0114-0000-0040, light chain S53T variant of mAb 0006 (NNC 0114-0005) (antibody, human IgG1, kappa, V domains shown)
VH: B1 VH
VL: B3 VL with S53T, S57T
amides protected from exchange in region E93-V98 at 100 sec [4]: ~2 amides | Bioactivity as % of RM (NCC0114-0000-0006), NK-92 bioassay [9]: 92.9% | IC50 (nM), B cell proliferation, Donor 1 [6]: 0.93 nM | IC50 (nM), B cell proliferation, Donor 3 [6]: 1 nM

The next lines start with the values.

Bioactivity as % of RM (NCC0114-0000-0006), NK-92 bioassay [9]: 89.8% | IC50 (nM), B cell proliferation, Donor 2 [6]: 0.3 nM | IC50 (nM), B cell proliferation, Donor 4 [6]: 1.35 nM
B2: 0114-0000-0043, light chain R55K variant of mAb 0006 (NNC 0114-0005) (antibody, human IgG1, kappa, V domains shown)
VH: B1 VH
VL: B3 VL with R55K, S57T

Kd [1]: 0.43 pM and 0.42 pM | koff [1]: 1.2e-05 s⁻¹ and 1.1e-05 s⁻¹ | kon [1]: 2.7e+07 M⁻¹ s⁻¹ | amides protected from exchange in region E93-V98 at 100 sec [4]: ~2 amides | Bioactivity as % of RM (NCC0114-0000-0006), NK-92 bioassay [9]: 89.2% | IC50 (nM), B cell proliferation, Donor 1 [6]: 1.18 nM | IC50 (nM), B cell proliferation, Donor 3 [6]: 1.21 nM | Kd [10]: ≤ 1 pM | koff [10]: 1e-05 s⁻¹ | Kd [8]: 0.09 pM | koff [8]: 6.8e-06 s⁻¹ | kon [8]: 7.5e+07 M⁻¹ s⁻¹
B4: NNCD-0114-0000-0038, Heavy-chain residue 31 Ser to Ala mutated form (H:S31A) of NNC 0114-0005 (antibody, human IgG1, kappa, V domains shown)
VH: B1 VH with S31A
VL: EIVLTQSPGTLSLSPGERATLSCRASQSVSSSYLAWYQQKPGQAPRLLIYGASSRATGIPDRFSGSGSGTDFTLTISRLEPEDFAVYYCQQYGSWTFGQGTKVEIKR

amides protected from exchange in region E93-V98 at 100 sec [4]: ~2 amides | Bioactivity as % of RM (NCC0114-0000-0006), NK-92 bioassay [9]: 95.2% | IC50 (nM), B cell proliferation, Donor 1 [6]: 0.78 nM | IC50 (nM), B cell proliferation, Donor 3 [6]: 0.92 nM
B5: 0114-0000-0039, light chain S53A variant of mAb 0006 (NNC 0114-0005) (antibody, human IgG1, kappa, V domains shown)
VH: B1 VH
VL: B3 VL with S53A, S57T

Kd [3]: ≤ 1 pM | koff [3]: 1e-05 s⁻¹ | Kd [11]: 0.12 pM and 0.18 pM and 0.28 pM | koff [11]: 6.8e-06 s⁻¹ and 8.9e-06 s⁻¹ and 1.2e-05 s⁻¹ | kon [11]: 5.5e+07 M⁻¹ s⁻¹ and 4.9e+07 M⁻¹ s⁻¹ and 4.3e+07 M⁻¹ s⁻¹ | IC50 (nM), B cell proliferation, Donor 1 [6]: 1.23 nM | IC50 (nM), B cell proliferation, Donor 2 [6]: 0.86 nM | IC50 (nM), B cell proliferation, Donor 3 [6]: 1.13 nM | IC50 (nM), B cell proliferation, Donor 4 [6]: 0.91 nM
B6: monoclonal antibody NNC 0114-0015 (antibody, V domains shown)
VH: B1 VH with S31T
VL: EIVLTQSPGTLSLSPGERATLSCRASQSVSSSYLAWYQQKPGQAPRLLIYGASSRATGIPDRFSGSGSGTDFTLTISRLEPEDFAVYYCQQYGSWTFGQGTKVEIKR
notes: also called NNC114-0015
